The values that follow come from US20260125428A1, “SYNTHETIC TRIPLEX PEPTIDE NUCLEIC ACID-BASED INHIBITORS FOR CANCER THERAPY” (University of Connecticut, priority 2022, published 2026).

One data set deals with HeLa cells. As to the kind of experiment: Cellular uptake in HeLa cells (confocal microscopy). Format: cell-based. As to conditions: 24 h, live cells. The procedure:
(§1) FIGS. 3A-C show cellular uptake of indicated PNAs. (3A) A confocal image of HeLa cells showing cellular and nuclear uptake of γPNA7-NLS containing TAMRA at 2 μM dose and after 24 h of treatment. (3B) A confocal image of U2932 cells showing cellular and nuclear uptake of γPNA7-NLS containing tetramethylrhodamine (TAMRA) at 2 μM dose and after 24 h of treatment. (3C) A histogram representing flow cytometry results for cellular uptake of γPNA7-NLS in U2932 cells after incubation at different doses for 24 h. The scale bar represents 10 μm.
(§2) Cellular uptake: HeLa and U2932 cells were purchased from ATCC (USA), cultured in EMEM and RPMI media, respectively (Invitrogen, USA), supplemented with […] and 1% Penstrep at 37° C. and 5% CO2.
(§3) Confocal Microscopy: HeLa cells were seeded in 8 chamber slides at 50,000 cells/well. U2932 cells were seeded in 24 well plate at 100,000 cells per well. γPNA7-NLS containing TAMRA was added to the cells at 2 μM concentration. After 24 h, cells were washed with PBS to remove uninternalized PNA. The nucleus of live cells was stained using Hoechst dye and were visualized under confocal microscope (Nikon AIR, USA) while cells are maintained in CO2 independent media. […] Cells were then suspended in PBS and analyzed using LSR Fortessa X-20 cell analyzer (BD Biosciences, USA). The data was analyzed using Flowjo software.

The test system of another data set is U2932 cells. Description: Cellular uptake in U2932 cells (confocal microscopy, flow cytometry). Format: cell-based. The note with it: 24 h. The procedure: as §1, §2, §3
Data set [1] can be described thus: Biodistribution in U2932 xenograft mice (IVIS, confocal). Format: in vivo. The procedure: FIGS. 5A-D show results of in vivo administration of indicated PNAs. (5A) IVIS® images of xenograft mice bearing tumors at indicated time points after systemic administration of PNA-TAMRA and γPNA7-NLS at 5 mg/kg. (5B) IVIS® imaging of organs harvested from xenograft mice treated with PNA-TAMRA and γPNA7-NLS after 6 h of systemic administration. (5C) Quantification of fluorescence from the organs harvested from PNA-TAMRA and γPNA7-NLS treated xenograft mice. (5D) Confocal microscopy images of tumor and kidney tissue cryo-sections from PNA-TAMRA and γPNA7-NLS treated U2932 xenograft mice. Scale bar, 30 μm.
FIGS. 6A-C show effect of systemic administration of indicated PNAs. (6A) IVIS® images of xenograft mice bearing tumors at indicated time points after systemic administration of γPNA7-NLS and γPNA6 at 5 mg/kg. (6B) IVIS® imaging of organs harvested from control, γPNA7-NLS, and γPNA6 treated mice after 24 hours of systemic administration. (6C) Confocal imaging of tumor, liver, and kidney sections obtained from xenograft mice after 24 h of treatment with γPNA7-NLS and γPNA6. Scale bar is 30 μm.
In vivo studies in xenograft mice model: U2932 derived xenografts were generated by implanting 10 million cells subcutaneously on the lower right flank of the female NSG mice (NOD.Cg-Prkdc^scidIl2rg^tm1Wj1/SzJ, #005557, Jackson Laboratories, USA) of 5-6 weeks. The mice were maintained in the animal care facility at the University of Connecticut following the required Institutional Animal Care and Use Committee guidelines (IACUC). Mice developed palpable tumors after 3-4 weeks of implantation. Tumor dimensions including length (l), breadth (b), and height (h) were measured using a caliper and volume was calculated using the formula for ellipsoid (0.5236×lbh).
Biodistribution studies: Mice with 600-800 mm^3 tumor volume were used for the biodistribution studies. γPNA7-NLS, γPNA6 and regular PNA-TAMRA (23 mer with 3 arginine residues) was injected systemically (retro-orbital) at 5 mg/kg dose. Live imaging of animals was performed using in vivo imaging (IVIS®) spectrum CT and epifluorescence was recorded at excitation/emission wavelength of 549/578 nm at 0, 0.25, 1, 2, 4, 6, 8 and 24 h. Mice were euthanized after 6 h and 24 h. Organs were collected and imaged via IVIS® to determine organ localization of PNA. Further organs were frozen in optimum cutting temperature media (OCT) at −80° C. The tumor, liver, and kidney from treated and untreated mice were sectioned using a cryostat to obtain 10 μm tissue sections. The sections were washed in PBS followed by fixation in 10% neutral buffered formalin. After washing with PBS, sections were permeabilized using 0.2% Triton™-X. The nucleus was stained using mounting media with DAPI (Invitrogen, USA). Sections were allowed to harden overnight, and images were taken using 60× oil lens on a Nikon AIR confocal microscope.

Data set [2] is described as follows: Biodistribution in transgenic Ep-myc mice (IVIS, confocal). The format is in vivo. As to conditions: 24 hours. The procedure: FIGS. 8A-D show organ distribution after intravenous and subcutaneous administration of indicated PNAs. (8A) The organ distribution of γPNA-NLS TAMRA after intravenous (IV) and subcutaneous (SC) administration in transgenic mice model of B-cell lymphoma (Ep-myc). γPNA-NLS TAMRA was administered at 5 mg/kg via IV and SC route and organ distribution was determined via IVIS imaging after 24 h. (8B) Confocal microscopy images of different lymph nodes (LNs) after IV and SC injection of γPNA-NLS TAMRA. Blue indicates DAPI and red indicated TAMRA. Scale bar, 30 μm. (8C) C-myc protein levels in brachial lymph nodes of γPNA5-NLS treated mice in comparison to the control (untreated mice). N=4 mice per group. (8D) C-myc protein levels in axillary lymph nodes of γPNA5-NLS treated mice in comparison to the control (untreated mice). N=4 mice per group. Transgenic or Ep-myc mice were treated with γPNA5-NLS at 60 mg/kg dose over 2 days and mice were euthanized on day 3 for analysis.
In vivo studies in transgenic mice model: Ep-myc mice model of Burkitt lymphoma (B6.Cg-Tg(IgHMyc)22Bri/J, #002728, Jackson laboratories) which overexpresses c-myc was also used to test the efficacy of the designed PNA-NLS.
Biodistribution study: γPNA7-NLS containing TAMRA was administered via retro-orbital and subcutaneous route at 5 mg/kg dose in mice with visibly enlarged lymph nodes (cervical, brachial, axillary, and inguinal). Mice were euthanized after 24 h and organs were collected followed by imaging via IVIS®. All major organs and enlarged lymph nodes were collected and frozen in OCT media. The lymph nodes and organs were sectioned at 10 μm thickness using cryostat. The sections were then fixed, permeabilized and nucleus was stained with DAPI. The localization of PNA in lymph nodes was studied via confocal microscopy. Images were taken using 60× oil lens on a AIR confocal microscope.

Setting [3] is: organs harvested after 6 h, 5 mg/kg.
Where [4] appears, read: xenograft mice, 5 mg/kg systemic, imaged up to 24 h.

Consider “X3TCCCTCCCTCCGTTCTTTTTTCCCX7 (gamma PNA; NLS peptide; C-terminal TAMRA; gammaPNA to target; misc_feature 1 JJJTJJJT-linker- is covalently linked to the backbone, wherein J is pseudoisocytosine and the linker is 11-Amino-3,6,9-Trioxaundecanoic Acid (DCHA), represented as -OOO-; misc_feature 24 -K-linker-SEQ ID NO: 5-linker-label is covalently linked to the backbone, wherein the linker is 11-Amino-3,6,9-Trioxaundecanoic Acid (DCHA), represented as -OOO-, and the label i) [γPNA7-NLS]”, for which, in the data set with HeLa cells, the “cellular uptake, cytoplasm (confocal)” value was “significant accumulation of γPNA7-NLS in the cytoplasm” and the “nuclear uptake (confocal, TAMRA overlap with Hoechst)” value is “accumulation of γPNA7-NLS within the nucleus”. Besides, the “cellular and nuclear uptake (confocal)” value with U2932 cells was “accumulation of γPNA7-NLS in both the nucleus and cytoplasm”. Also, the “cellular uptake by flow cytometry” value with U2932 cells (different doses) was “dose dependent increase in cellular uptake”. Moreover, in data set [1] (6 h, 5 mg/kg), the “accumulation in tumor (confocal microscopy of cryo-sections)” value is on record as “superior accumulation”. The “TAMRA intensity from harvested tumors (IVIS)” value in data set [1] (6 h after systemic administration, 5 mg/kg) is reported as “significant TAMRA intensity”. Moreover, the “accumulation in tumors in comparison to γPNA6 (confocal imaging)” value in data set [1] (24 h, 5 mg/kg) was “significantly higher accumulation in tumors”. The “fluorescence signal of harvested tumors in comparison to γPNA6 (IVIS)” value in data set [1] (24 h after systemic administration, 5 mg/kg) was “higher fluorescence signal”. Besides, in data set [1] (setting [3]), the “accumulation in tumor in comparison to liver, kidney, and intestine” value is “higher in comparison to the other organs”; the “accumulation in tumors in comparison to PNA-TAMRA (quantified fluorescence)” value is “more than 6 fold”. Further, in data set [1] (xenograft mice, 5 mg/kg retro-orbital, imaged up to 6 h), the “tumor accumulation until (live IVIS imaging)” value came out at 6 h. Moreover, in data set [1] (setting [4]), the “retained within the tumors until (live IVIS imaging)” value is reported as 24 h and the “significant accumulation in tumors starting from (live IVIS imaging)” value is recorded as 0.25 h. For the same substance, the “accumulation in lymph nodes after IV administration (confocal)” value in data set [2] (5 mg/kg IV) was “minimal accumulation in the lymph nodes”. The “accumulation in lymph nodes after SC administration (confocal)” value in data set [2] (5 mg/kg SC) was “accumulated significantly in multiple lymph nodes”. In data set [2] (5 mg/kg), the “accumulation in lymph nodes, SC route in comparison to IV route (IVIS)” value was “significantly higher accumulation”.
